Source: patent US10786543B2, “P75NTR antagonists and treatment of acute and chronic cardiac disease” (THE JOHNS HOPKINS UNIVERSITY, priority 2015, dated 2020)
Ends that are not written are not given here.

T1: p75^NTR (Mus musculus, UniProt Q9Z0W1)
T1 construct: from tissue; host or cells: living mice (heart and other tissues) after transverse aortic constriction
T1 sequence (Q9Z0W1 32-427): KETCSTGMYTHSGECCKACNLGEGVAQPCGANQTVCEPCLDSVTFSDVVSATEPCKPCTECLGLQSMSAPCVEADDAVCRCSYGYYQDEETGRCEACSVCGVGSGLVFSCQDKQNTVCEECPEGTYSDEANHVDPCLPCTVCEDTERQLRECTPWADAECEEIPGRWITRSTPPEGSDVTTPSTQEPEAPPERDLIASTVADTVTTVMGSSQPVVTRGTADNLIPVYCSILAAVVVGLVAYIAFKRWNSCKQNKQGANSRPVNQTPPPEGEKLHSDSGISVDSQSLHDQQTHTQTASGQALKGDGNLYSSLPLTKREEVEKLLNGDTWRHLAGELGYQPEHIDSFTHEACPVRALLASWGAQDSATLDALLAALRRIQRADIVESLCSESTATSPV

B1: proBDNF: uncleaved (immature) neurotrophin, pro-brain derived neurotrophic factor, activates p75^NTR (protein, UniProt P23560 19-247, looked up)
pro-form: APMKEANIRGQGGLAYPGVRTHGTLESVNGPKAGSRGLTSLADTFEHVIEELLDEDQKVRPNEENNKDADLYTSRVMLSSQVPLEPPLLFLLEEYKNYLDAANMSMRVRRHSDPARRGELSVCDSISEWVTAADKKTAVDMSGGTVTVLEKVPVSKGQLKQYFYETKCNPMGYTKEGCRGIDKRHWNSQCRTTQSYVRALTMDSKKRIGWRFIRIDTSCVCTLTIKRGR
modifications: pro-form

How the values were obtained:
[1] = target: T1, p75^NTR; experiment: Transverse aortic constriction (TAC) pressure overload/heart failure with chronic P75NTR antagonist infusion, echocardiography; format: in vivo; details: TAC mice; chronic infusion for 5 weeks, instituted 1 week after TAC; 200 μg/kg/day s.c. osmotic pump; FIG. 3
Procedure: Transverse aortic constriction (TAC) was performed following a previously reported protocol (J. Clin. Invest., 2005; 115(5):1221-31; Circ. Res., 2010; 106(1):193-202; Antioxid Redox Signal 2014; 20(2):267-80). After induction of anesthesia and intubation, mice were placed on a volume ventilator (120 breaths/min, 1.2 ml/g/min) and anesthesia was maintained with […] isofluorane. The aortic arch was isolated and tied against a 27-gauge needle, resulting in a 65-70% constriction after the removal of the needle. The chest and skin were closed and animals extubated and allowed to fully recover. Sham-operated mice underwent the same operation except that after the aortic arch was isolated, no ligature was placed. The ALZET osmotic pump (Model 2004) with P75^NTR peptidic antagonist (200 μg/kg/day) or saline vehicle was placed subcutaneously one week after TAC. P75^NTR antagonistic cyclic peptide (CATDIKGAEC) (SEQ ID NO: 1) was synthesized at the Johns Hopkins Synthesis and Sequencing Facility. […]
In vivo cardiac morphology and function were assessed by serial M-mode echocardiography (Acuson Sequioa C256, 13 MHz transducer, Siemens, Pa.) performed in conscious mice. […] LV percent FS, EF and LV mass were calculated as described previously. […]

[2] = system: isolated p75^NTR-/- whole hearts; experiment: LV function and coronary tone in Langendorff-perfused isolated p75^NTR-/- whole hearts infused with proBDNF; set-up: species or system mouse; details: hearts of mice lacking p75^NTR; FIG. 7
Source text: (§1) After anesthesia, hearts were harvested and the aorta cannulated and retrogradely perfused with Krebs-Henseleit (KH) buffer warmed and gassed with 95% O2 and 5% CO2, as reported previously (Antioxid. Redox Signal, 2013; 19(11):1185-97). Briefly, hearts were paced at 600 bpm (10 Hz, 4 ms duration, 4 V) and LV function monitored with a water-filled balloon, connected to a pressure transducer coupled to a continuous data recording system. After stabilization, in addition to LV function parameters, baseline values of coronary perfusion pressure (CPP) were obtained through a side-arm of the aortic cannula connected to a separate pressure transducer.

[3] = system: isolated healthy mouse myocytes; experiment: Sarcomere shortening and whole Ca^2+ transient in isolated healthy mouse myocytes; format: cell-based; details: directly applied to isolated healthy mouse myocytes
Procedure: Isolation of rat and mouse ventricular myocytes was carried out as previously described and approved by the Animal Care and Use Committee of Johns Hopkins University. Mice were anesthetized with intraperitoneal pentobarbital sodium (100 mg/kg). To assess for sarcomere shortening, cells were imaged using field stimulation (0.5 Hz) in an inverted fluorescence microscope (Diaphot 200; Nikon, Inc). Sarcomere length was measured by real-time Fourier transform (IonOptix MyoCam, CCCD100M). Twitch amplitude is expressed as a percentage of resting cell length. Twitch kinetics was quantified by measuring the time to peak shortening and the time from peak shortening to 50% relaxation. For whole Ca^2+ transient measurements, myocytes were loaded with the Ca^2+ indicator fluo-4/A M (Molecular Probes, 20 μM for 30 min) and Ca^2+ transients were measured under field-stimulation (0.5 Hz) in perfusion solution by confocal laser scanning microscope (LSM510, Carl Zeiss). Digital image analysis used customer-designed programs coded in Interactive Data Language (IDL).

[4] = system: control mouse hearts; experiment: LV function and coronary tone in Langendorff-perfused control mouse hearts infused with proBDNF
Source text: as §1

Row | LV ejection fraction [1] | Molecule | LV function [2] | coronary vascular tone [2] | amplitude of the whole Ca^2+ transient ([3]; FIGS. 5 and 6 lower panels) | diastolic Ca^2+ levels ([3]; FIGS. 5 and 6 lower panels) | contractility (extent of sarcomere shortening) ([3]; FIGS. 5 and 6 upper panels) | coronary perfusion pressure (CPP), vasoconstriction ([4]; FIG. 4A) | overall left-ventricle (LV) function: relaxation ([4]; FIG. 4F) | overall left-ventricle (LV) function: contractility ([4]; FIGS. 4B, D and E)
1 | preserved | CATDIKGAEC (also: cyclic) |  |  |  |  |  |  |  | 
2 |  | B1 | does not alter | does not alter | reduces | rise | reduces | markedly higher | reducing | reducing
